In PMC6005179:

What was measured:
[1] = target: preF (DS-Cav1) with a C-terminal 8x His-tag and AviTag (respiratory syncytial virus (strain not stated)) (UniProt P03420); assay: SPR
[2] = target: preF-stabilized variant of RSV F (PR-DM), tags removed, deglycosylated (respiratory syncytial virus (strain not stated)) (UniProt P03420); assay: crystal structure

Row | Substance | fold reduction in affinity against ADI-19425 [1] [fold] | stoichiometry N (Fab per preF trimer) [2]
1 | ADI-19425 Fab, light chain Y31A variant | > 200 | 
2 | ADI-19425 Fab, light chain Y91A variant | > 80 | 
3 | AM22 Fab |  | 3
